Test results from patent publication US20100061996.

B1: Lys-plasmin (protein)
chain: KVYLSECKTGNGKNYRGTMSKTKNGITCQKWSSTSPHRPRFSPATHPSEGLEENYCRNPDNDPQGPWCYTTDPEKRYDYCDILECEEECMHCSGENYDGKISKTMSGLECQAWDSQSPHAHGYIPSKFPNKNLKKNYCRNPDRELRPWCFTTDPNKRWELCDIPRCTTPPPSSGPTYQCLKGTGENYRGNVAVTVSGHTCQHWSAQTPHTHNRTPENFPCKNLDENYCRNPDGKRAPWCHTTNSQVRWEYCKIPSCDSSPVSTEQLAPTAPPELTPVVQDCYHGDGQSYRGTSSTTTTGKKCQSWSSMTPHRHQKTPENYPNAGLTMNYCRNPDADKGPWCFTTDPSVRWEYCNLKKCSGTEASVVAPPPVVLLPDVETPSEEDCMFGNGKGYRGKRATTVTGTPCQDWAAQEPHRHSIFTPETNPRAGLEKNYCRNPDGDVGGPWCYTTNPRKLYDYCDVPQCAAPSFDCGKPQVEPKKCPGRVVGGCVAHPHSWPWQVSLRTRFGMHFCGGTLISPEWVLTAAHCLEKSPRPSSYKVILGAHQEVNLEPHVQEIEVSRLFLEPTRKDIALLKLSSPAVITDKVIPACLPSPNYVVADRTECFITGWGETQGTFGAGLLKEAQLPVIENKVCNRYEFLNGRVQSTELCAGHLAGGTDSCQGDSGGPLVCFEKDKYILQGVTSWGLGCARPNKPGVYVRVSRFVTWIEGVMRNN
B2: matriptase protease domain (protein)
chain: VVGGTDADEGEWPWQVSLHALGQGHICGASLISPNWLVSAAHCYIDDRGFRYSDPTQWTAFLGLHDQSQRSAPGVQERRLKRIISHPFFNDFTFDYDIALLELEKPAEYSSMVRPICLPDASHVFPAGKAIWVTGWGHTQYGGTGALILQKGEIRVINQTTCENLLPQQITPRMMCVGFLSGGVDSCQGDSGGPLSSVEADGRIFQAGVVSWGDGCAQRNKPGVYTRLPLFRDWIKENTGV

Biological target: pro-uPA (pro-urokinase-type plasminogen activator, single-chain zymogen form of uPA), P00749

Protein	cleavage of pro-uPA (SDS-PAGE, 1.5 uM pro-uPA, 15 nM plasmin)	k (first-order rate constant of pro-uPA activation) [min⁻¹]	kcat/Km of pro-uPA activation [M⁻¹ s⁻¹]
B1	cleavage of pro-uPA by plasmin generated identical fragments and with a time-course similar to hepsin	0.0815	453000
B2	–	0.0142	79000
